Starred links: 1 amine or outer side, 2 acyl side, 3 side chain; linkers in the order of their positions; H or OH if unused. Positions of bridges follow the written chain, without caps; N, C: chain ends. Non-standard residues stand in square brackets, D forms with d. No end group written: not given here. TATA = O=C(CC[*:1])N1CN(C(=O)CC[*:2])CN(C(=O)CC[*:3])C1; Phe(4-guanidino) = N=C(N)Nc1ccc(C[C@H](N)C(=O)O)cc1; hArg = N=C(N)NCCCC[C@H](N)C(=O)O; Agb = N=C(N)NCC[C@H](N)C(=O)O
B1: peptide 67 (FXII618, Arg1 to lysine) (peptide)
peptide: KCFRLPCRQLRCR-NH2
modifications: linker 2-7-12 via TATA; N-terminus assumed
SMILES: CC(C)C[C@@H]1NC(=O)[C@H](CCC(N)=O)NC(=O)[C@H](CCCNC(=N)N)NC(=O)[C@@H]2CSCCC(=O)N3CN(CN(C3)C(=O)CCSC[C@H](NC(=O)[C@@H](N)CCCCN)C(=O)N[C@@H](Cc3ccccc3)C(=O)N[C@@H](CCCNC(=N)N)C(=O)N[C@@H](CC(C)C)C(=O)N3CCC[C@H]3C(=O)N2)C(=O)CCSC[C@@H](C(=O)N[C@@H](CCCNC(=N)N)C(N)=O)NC(=O)[C@H](CCCNC(=N)N)NC1=O
B2: peptide 41 (peptide 2, Arg4 to 4-guanidinophenylalanine) (peptide)
peptide: RCF[Phe(4-guanidino)]LPCRQLRCRW-NH2
modifications: linker 2-7-12 via TATA; N-terminus assumed
SMILES: CC(C)C[C@@H]1NC(=O)[C@H](CCC(N)=O)NC(=O)[C@H](CCCNC(=N)N)NC(=O)[C@@H]2CSCCC(=O)N3CN(CN(C3)C(=O)CCSC[C@H](NC(=O)[C@@H](N)CCCNC(=N)N)C(=O)N[C@@H](Cc3ccccc3)C(=O)N[C@@H](Cc3ccc(NC(=N)N)cc3)C(=O)N[C@@H](CC(C)C)C(=O)N3CCC[C@H]3C(=O)N2)C(=O)CCSC[C@@H](C(=O)N[C@@H](CCCNC(=N)N)C(=O)N[C@@H](Cc2c[nH]c3ccccc23)C(N)=O)NC(=O)[C@H](CCCNC(=N)N)NC1=O
notes: Number tied to residue by the order of the list
B3: peptide 7 (peptide 2, Phe3 to valine) (peptide)
peptide: RCVRLPCRQLRCRW-NH2
modifications: linker 2-7-12 via TATA; N-terminus assumed
SMILES: CC(C)C[C@@H]1NC(=O)[C@H](CCC(N)=O)NC(=O)[C@H](CCCNC(=N)N)NC(=O)[C@@H]2CSCCC(=O)N3CN(CN(C3)C(=O)CCSC[C@H](NC(=O)[C@@H](N)CCCNC(=N)N)C(=O)N[C@@H](C(C)C)C(=O)N[C@@H](CCCNC(=N)N)C(=O)N[C@@H](CC(C)C)C(=O)N3CCC[C@H]3C(=O)N2)C(=O)CCSC[C@@H](C(=O)N[C@@H](CCCNC(=N)N)C(=O)N[C@@H](Cc2c[nH]c3ccccc23)C(N)=O)NC(=O)[C@H](CCCNC(=N)N)NC1=O
notes: as for B2
B4: peptide 21 (peptide 2, Gln9 to aspartate) (peptide)
peptide: RCFRLPCRDLRCRW-NH2
modifications: linker 2-7-12 via TATA; N-terminus assumed
SMILES: CC(C)C[C@@H]1NC(=O)[C@H](CC(=O)O)NC(=O)[C@H](CCCNC(=N)N)NC(=O)[C@@H]2CSCCC(=O)N3CN(CN(C3)C(=O)CCSC[C@H](NC(=O)[C@@H](N)CCCNC(=N)N)C(=O)N[C@@H](Cc3ccccc3)C(=O)N[C@@H](CCCNC(=N)N)C(=O)N[C@@H](CC(C)C)C(=O)N3CCC[C@H]3C(=O)N2)C(=O)CCSC[C@@H](C(=O)N[C@@H](CCCNC(=N)N)C(=O)N[C@@H](Cc2c[nH]c3ccccc23)C(N)=O)NC(=O)[C@H](CCCNC(=N)N)NC1=O
B5: peptide 11 (peptide 2, Leu5 to valine) (peptide)
peptide: RCFRVPCRQLRCRW-NH2
modifications: linker 2-7-12 via TATA; N-terminus assumed
SMILES: CC(C)C[C@@H]1NC(=O)[C@H](CCC(N)=O)NC(=O)[C@H](CCCNC(=N)N)NC(=O)[C@@H]2CSCCC(=O)N3CN(CN(C3)C(=O)CCSC[C@H](NC(=O)[C@@H](N)CCCNC(=N)N)C(=O)N[C@@H](Cc3ccccc3)C(=O)N[C@@H](CCCNC(=N)N)C(=O)N[C@@H](C(C)C)C(=O)N3CCC[C@H]3C(=O)N2)C(=O)CCSC[C@@H](C(=O)N[C@@H](CCCNC(=N)N)C(=O)N[C@@H](Cc2c[nH]c3ccccc23)C(N)=O)NC(=O)[C@H](CCCNC(=N)N)NC1=O
B6: peptide 12 (peptide 2, Leu5 to isoleucine) (peptide)
peptide: RCFRIPCRQLRCRW-NH2
modifications: linker 2-7-12 via TATA; N-terminus assumed
SMILES: CC[C@H](C)[C@@H]1NC(=O)[C@H](CCCNC(=N)N)NC(=O)[C@H](Cc2ccccc2)NC(=O)[C@@H](NC(=O)[C@@H](N)CCCNC(=N)N)CSCCC(=O)N2CN3CN(C2)C(=O)CCSC[C@H](NC(=O)[C@@H]2CCCN2C1=O)C(=O)N[C@@H](CCCNC(=N)N)C(=O)N[C@@H](CCC(N)=O)C(=O)N[C@@H](CC(C)C)C(=O)N[C@@H](CCCNC(=N)N)C(=O)N[C@H](C(=O)N[C@@H](CCCNC(=N)N)C(=O)N[C@@H](Cc1c[nH]c2ccccc12)C(N)=O)CSCCC3=O
B7: peptide 8 (peptide 2, Phe3 to isoleucine) (peptide)
peptide: RCIRLPCRQLRCRW-NH2
modifications: linker 2-7-12 via TATA; N-terminus assumed
SMILES: CC[C@H](C)[C@@H]1NC(=O)[C@@H](NC(=O)[C@@H](N)CCCNC(=N)N)CSCCC(=O)N2CN3CN(C2)C(=O)CCSC[C@H](NC(=O)[C@@H]2CCCN2C(=O)[C@H](CC(C)C)NC(=O)[C@H](CCCNC(=N)N)NC1=O)C(=O)N[C@@H](CCCNC(=N)N)C(=O)N[C@@H](CCC(N)=O)C(=O)N[C@@H](CC(C)C)C(=O)N[C@@H](CCCNC(=N)N)C(=O)N[C@H](C(=O)N[C@@H](CCCNC(=N)N)C(=O)N[C@@H](Cc1c[nH]c2ccccc12)C(N)=O)CSCCC3=O
notes: as for B2
B8: peptide 26 (peptide 2, Leu10 to isoleucine) (peptide)
peptide: RCFRLPCRQIRCRW-NH2
modifications: linker 2-7-12 via TATA; N-terminus assumed
SMILES: CC[C@H](C)[C@@H]1NC(=O)[C@H](CCC(N)=O)NC(=O)[C@H](CCCNC(=N)N)NC(=O)[C@@H]2CSCCC(=O)N3CN(CN(C3)C(=O)CCSC[C@H](NC(=O)[C@@H](N)CCCNC(=N)N)C(=O)N[C@@H](Cc3ccccc3)C(=O)N[C@@H](CCCNC(=N)N)C(=O)N[C@@H](CC(C)C)C(=O)N3CCC[C@H]3C(=O)N2)C(=O)CCSC[C@@H](C(=O)N[C@@H](CCCNC(=N)N)C(=O)N[C@@H](Cc2c[nH]c3ccccc23)C(N)=O)NC(=O)[C@H](CCCNC(=N)N)NC1=O
B9: peptide 64 (FXII618, Arg1 to isoleucine) (peptide)
peptide: ICFRLPCRQLRCR-NH2
modifications: linker 2-7-12 via TATA; N-terminus assumed
SMILES: CC[C@H](C)[C@H](N)C(=O)N[C@H]1CSCCC(=O)N2CN3CN(C2)C(=O)CCSC[C@H](NC(=O)[C@@H]2CCCN2C(=O)[C@H](CC(C)C)NC(=O)[C@H](CCCNC(=N)N)NC(=O)[C@H](Cc2ccccc2)NC1=O)C(=O)N[C@@H](CCCNC(=N)N)C(=O)N[C@@H](CCC(N)=O)C(=O)N[C@@H](CC(C)C)C(=O)N[C@@H](CCCNC(=N)N)C(=O)N[C@H](C(=O)N[C@@H](CCCNC(=N)N)C(N)=O)CSCCC3=O
notes: as for B2
B10: peptide 66 (FXII618, Arg1 to alanine) (peptide)
peptide: ACFRLPCRQLRCR-NH2
modifications: linker 2-7-12 via TATA; N-terminus assumed
SMILES: CC(C)C[C@@H]1NC(=O)[C@H](CCC(N)=O)NC(=O)[C@H](CCCNC(=N)N)NC(=O)[C@@H]2CSCCC(=O)N3CN(CN(C3)C(=O)CCSC[C@@H](C(=O)N[C@@H](CCCNC(=N)N)C(N)=O)NC(=O)[C@H](CCCNC(=N)N)NC1=O)C(=O)CCSC[C@H](NC(=O)[C@H](C)N)C(=O)N[C@@H](Cc1ccccc1)C(=O)N[C@@H](CCCNC(=N)N)C(=O)N[C@@H](CC(C)C)C(=O)N1CCC[C@H]1C(=O)N2
notes: as for B2
B11: peptide 65 (FXII618, Arg1 to valine) (peptide)
peptide: VCFRLPCRQLRCR-NH2
modifications: linker 2-7-12 via TATA; N-terminus assumed
SMILES: CC(C)C[C@@H]1NC(=O)[C@H](CCC(N)=O)NC(=O)[C@H](CCCNC(=N)N)NC(=O)[C@@H]2CSCCC(=O)N3CN(CN(C3)C(=O)CCSC[C@H](NC(=O)[C@@H](N)C(C)C)C(=O)N[C@@H](Cc3ccccc3)C(=O)N[C@@H](CCCNC(=N)N)C(=O)N[C@@H](CC(C)C)C(=O)N3CCC[C@H]3C(=O)N2)C(=O)CCSC[C@@H](C(=O)N[C@@H](CCCNC(=N)N)C(N)=O)NC(=O)[C@H](CCCNC(=N)N)NC1=O
notes: as for B2
B12: peptide 87 (FXII618, Leu10 to glycine) (peptide)
peptide: RCFRLPCRQGRCR-NH2
modifications: linker 2-7-12 via TATA; N-terminus assumed
SMILES: CC(C)C[C@@H]1NC(=O)[C@H](CCCNC(=N)N)NC(=O)[C@H](Cc2ccccc2)NC(=O)[C@@H](NC(=O)[C@@H](N)CCCNC(=N)N)CSCCC(=O)N2CN3CN(C2)C(=O)CCSC[C@H](NC(=O)[C@@H]2CCCN2C1=O)C(=O)N[C@@H](CCCNC(=N)N)C(=O)N[C@@H](CCC(N)=O)C(=O)NCC(=O)N[C@@H](CCCNC(=N)N)C(=O)N[C@H](C(=O)N[C@@H](CCCNC(=N)N)C(N)=O)CSCCC3=O
B13: peptide 85 (FXII618, Gln9 to glycine) (peptide)
peptide: RCFRLPCRGLRCR-NH2
modifications: linker 2-7-12 via TATA; N-terminus assumed
SMILES: CC(C)C[C@@H]1NC(=O)CNC(=O)[C@H](CCCNC(=N)N)NC(=O)[C@@H]2CSCCC(=O)N3CN(CN(C3)C(=O)CCSC[C@H](NC(=O)[C@@H](N)CCCNC(=N)N)C(=O)N[C@@H](Cc3ccccc3)C(=O)N[C@@H](CCCNC(=N)N)C(=O)N[C@@H](CC(C)C)C(=O)N3CCC[C@H]3C(=O)N2)C(=O)CCSC[C@@H](C(=O)N[C@@H](CCCNC(=N)N)C(N)=O)NC(=O)[C@H](CCCNC(=N)N)NC1=O
B14: peptide 39 (peptide 2, Arg4 to homoarginine) (peptide)
peptide: H-RCF[hArg]LPCRQLRCRW-NH2
modifications: linker 2-7-12 via TATA
notes: as for B2
B15: peptide 40 (peptide 2, Arg4 to norarginine) (peptide)
peptide: RCF[Agb]LPCRQLRCRW-NH2
modifications: linker 2-7-12 via TATA
notes: as for B2

These binders were tested against T1, human β-FXIIa (HFXIIAB; Molecular Innovations) (human, UniProt P00748 354-362; P00748 373-615, limits assumed) (assay: protease inhibition assay, fluorogenic substrate).
T1 construct: domain: catalytic domain; Bought; also called human b-FXIIa; human FXIIa
T1 sequence (P00748 373-615 limits assumed, one chain of several): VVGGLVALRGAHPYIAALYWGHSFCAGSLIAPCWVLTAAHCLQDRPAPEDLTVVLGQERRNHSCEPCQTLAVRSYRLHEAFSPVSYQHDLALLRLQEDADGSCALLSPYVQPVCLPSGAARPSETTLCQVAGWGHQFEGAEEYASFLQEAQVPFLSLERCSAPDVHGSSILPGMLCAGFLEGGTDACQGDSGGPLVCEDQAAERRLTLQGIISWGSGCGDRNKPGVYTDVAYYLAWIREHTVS

Row | Binder | Ki
1 | B1 | 27.4 nM

Each binder was assayed against T1, human β-FXIIa (HFXIIAB; Molecular …) (assay: protease inhibition assay).

Row | Binder | fold reduction of affinity vs peptide 2 | fold reduction of activity vs peptide 2 | fold reduction of affinity vs peptide 1 | fold reduction of affinity vs FXII618
2 | B2 | ≥ 5 fold | – | – | –
3 | B3 | – | > 10 fold | – | –
4 | B4 | – | 54 fold | – | –
5 | B5 | > 50 fold | – | – | –
6 | B6 | > 50 fold | – | – | –
7 | B7 | – | > 10 fold | – | –
8 | B8 | – | 8 fold | – | –
9 | B9 | – | – | > 5 fold | –
10 | B10 | – | – | > 5 fold | –
11 | B11 | – | – | > 5 fold | –
12 | B12 | – | – | – | ~200 fold
13 | B13 | – | – | – | ~200 fold
14 | B14 | ≥ 5 fold | – | – | –
15 | H-RCF[homolysine]LPCRQLRCRW-NH2 (linker 2-7-12 via TATA) [peptide 38 (peptide 2, Arg4 to homolysine)] | ≥ 5 fold | – | – | –
16 | B15 | ≥ 5 fold | – | – | –
